The values that follow are results of earlier work, collected in PMC10453832.

The target in this data set is F-actin (Oryctolagus cuniculus) (UniProt P68135).

Broadly, the Kd is the concentration at which binding is half-saturated. As for “β-III-spectrin ABD (from UniProt O15020)”, the dissociation constant (Kd) is 75 nM.
